Reference: patent publication US20220259268A1

Biological target: neutral avidin (UniProt P02701)
Test: dynamic light scattering; each protein alone peaks near 10 nm

neutral avidin, sequence (P02701 25-152): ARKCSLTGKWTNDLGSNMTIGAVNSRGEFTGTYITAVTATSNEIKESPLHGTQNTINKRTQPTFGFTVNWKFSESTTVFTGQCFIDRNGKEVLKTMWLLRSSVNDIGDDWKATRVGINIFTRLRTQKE

Substance: Nhead recombinant protein (AtaA59-325-GCN4pII-His)
- particle size at the peak of the mixture (DLS): > 1000 nm
